From the supplement of paper PMC10065799, “High-throughput profiling of sequence recognition by tyrosine kinases and SH2 domains using bacterial peptide display” (eLife, 2023)

The sequences below were run on c-Src (assay: phosphorylation enrichment, bacterial display (enrichment ratio); higher = better substrate or ligand; peptides without Tyr show the background).
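Note: 11-residue human phosphosite peptides and single-mutation variants displayed on the E. coli surface, counted by deep sequencing, each peptide's frequency after selection divided by its frequency in the unselected input library; frequency after pTyr selection over input frequency; kinase dosed for 20-30% of maximal phosphorylation in three min.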

Sequence	phosphorylation enrichment
SEKVVYRRFTE [NCF1_Y41]	0.438
CTTIHFNFMCN [TP53_Y234_Y234F_YF]	0.507
IMITDYLLLFR [INSR_Y87]	0.481
MSSAGYRAAEG [COL6A3_Y543_T538M]	0.404
NKEAICSGFIR [SMCHD1_Y283_Y283C_YF]	0.451
CTTIRYNYMCN [TP53_Y234_H233R]	0.417
YRVDCYKNFVA [FHL1_Y213_C209R]	0.415
IFGASYVPFAA [RBM47_Y541_YF]	1
VNYGAYINYFK [GLB1_Y488_D491Y]	1.08
GRRNTYYASIA [ACADM_Y352]	0.638
RRIHSHRGHLW [VHL_Y112_Y112H]	0.828
SCRENYSFSEE [LEMD3_Y258_D260Y_YF]	0.588
YADGVYQALEE [DUOX2_Y70]	4.45
LENSTYQFICV [CRB1_Y760_R764C_YF]	1.84
SSMIDYKPLEK [MYOC_Y479_N480K]	0.384
QRALLYEDTLF [UNC13D_Y56_A59T_YF]	1.95
GRDQPYSGTGD [TYRO3_Y828_A831T]	0.441

Sequence	phosphorylation enrichment
ISDEAYVMAGV [ERBB2_Y772_L768S]	0.504
TSIGNYFKPWF [DHCR24_Y299_N294T_YF]	0.348
EARRVYGDIIF [ALDH5A1_Y175_H180Y_YF]	0.654
YKIYLYTLNDN [FN1_Y1975]	0.431
EATKGYLDDPT [G6PD_Y322]	0.392
ALAAPYVLFPG [CEFIP_Y1332_YF]	4.54
SNFRAYATEPQ [TNNI3_Y29_H34Q_YF]	0.346
ALADKYHGGGG [HBB_Y146_H144D]	0.318
ARAGEYGAEAL [HBA1_Y25_H21R]	0.396
FVGGFYGGCNE [CTSC_Y352_YF]	0.784
FAADFYKLLGN [ROR2_Y646_YF]	0.524
LLIMEYAKYGS [RET_Y806_V804M]	0.973
MGRVNYGAFIN [GLB1_Y485_YF]	0.562
GADDSYYTARS [ZAP70_Y492]	0.742
STTIHYNFMCN [TP53_Y234_C229S_YF]	0.463
MMVGAYSTLEG [ECPAS_Y470]	0.704

The sequences below were run against EPHB2 (UniProt P29323) in the same assay as above.
Chain of EPHB2 (P29323 whole entry, looked up): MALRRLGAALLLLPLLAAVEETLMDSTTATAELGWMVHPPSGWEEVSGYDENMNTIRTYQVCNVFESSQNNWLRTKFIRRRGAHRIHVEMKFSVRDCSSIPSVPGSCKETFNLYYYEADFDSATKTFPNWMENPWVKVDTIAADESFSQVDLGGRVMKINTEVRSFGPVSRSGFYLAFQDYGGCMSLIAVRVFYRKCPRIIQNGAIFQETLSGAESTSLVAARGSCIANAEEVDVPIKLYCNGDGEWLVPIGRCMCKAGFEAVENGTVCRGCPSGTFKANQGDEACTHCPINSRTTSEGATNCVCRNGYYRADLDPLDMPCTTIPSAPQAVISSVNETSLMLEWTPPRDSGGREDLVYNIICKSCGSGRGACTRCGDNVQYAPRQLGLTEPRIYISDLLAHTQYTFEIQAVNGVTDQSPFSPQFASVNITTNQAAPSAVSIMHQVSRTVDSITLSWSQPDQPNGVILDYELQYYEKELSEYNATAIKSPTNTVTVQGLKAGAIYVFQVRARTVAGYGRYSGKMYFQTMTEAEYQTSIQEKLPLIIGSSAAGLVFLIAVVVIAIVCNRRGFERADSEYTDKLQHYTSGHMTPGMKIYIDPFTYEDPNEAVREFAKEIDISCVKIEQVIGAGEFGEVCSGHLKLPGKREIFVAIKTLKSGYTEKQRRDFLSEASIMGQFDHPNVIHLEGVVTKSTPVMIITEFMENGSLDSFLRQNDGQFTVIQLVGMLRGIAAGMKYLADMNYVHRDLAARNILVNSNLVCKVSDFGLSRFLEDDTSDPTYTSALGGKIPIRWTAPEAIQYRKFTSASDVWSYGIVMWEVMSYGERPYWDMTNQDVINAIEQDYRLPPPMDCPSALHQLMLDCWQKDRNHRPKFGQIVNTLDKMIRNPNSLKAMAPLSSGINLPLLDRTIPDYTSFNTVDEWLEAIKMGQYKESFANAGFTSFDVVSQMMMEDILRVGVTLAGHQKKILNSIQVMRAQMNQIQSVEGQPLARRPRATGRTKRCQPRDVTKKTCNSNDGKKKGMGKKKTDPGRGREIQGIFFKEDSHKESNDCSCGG

Sequence	phosphorylation enrichment
SEKVVYRRFTE [NCF1_Y41]	0.423
CTTIHFNFMCN [TP53_Y234_Y234F_YF]	0.656
IMITDYLLLFR [INSR_Y87]	0.647
MSSAGYRAAEG [COL6A3_Y543_T538M]	0.334
NKEAICSGFIR [SMCHD1_Y283_Y283C_YF]	0.398
CTTIRYNYMCN [TP53_Y234_H233R]	0.583
YRVDCYKNFVA [FHL1_Y213_C209R]	0.595
IFGASYVPFAA [RBM47_Y541_YF]	0.53
VNYGAYINYFK [GLB1_Y488_D491Y]	2.03
GRRNTYYASIA [ACADM_Y352]	0.477
RRIHSHRGHLW [VHL_Y112_Y112H]	0.732
SCRENYSFSEE [LEMD3_Y258_D260Y_YF]	0.725
YADGVYQALEE [DUOX2_Y70]	2.82
LENSTYQFICV [CRB1_Y760_R764C_YF]	2.39
SSMIDYKPLEK [MYOC_Y479_N480K]	0.421
QRALLYEDTLF [UNC13D_Y56_A59T_YF]	13.9
GRDQPYSGTGD [TYRO3_Y828_A831T]	0.43

Sequence	phosphorylation enrichment
ISDEAYVMAGV [ERBB2_Y772_L768S]	0.53
TSIGNYFKPWF [DHCR24_Y299_N294T_YF]	4.48
EARRVYGDIIF [ALDH5A1_Y175_H180Y_YF]	0.448
YKIYLYTLNDN [FN1_Y1975]	0.711
EATKGYLDDPT [G6PD_Y322]	0.473
ALAAPYVLFPG [CEFIP_Y1332_YF]	0.452
SNFRAYATEPQ [TNNI3_Y29_H34Q_YF]	0.408
ALADKYHGGGG [HBB_Y146_H144D]	0.374
ARAGEYGAEAL [HBA1_Y25_H21R]	0.469
FVGGFYGGCNE [CTSC_Y352_YF]	0.752
FAADFYKLLGN [ROR2_Y646_YF]	0.512
LLIMEYAKYGS [RET_Y806_V804M]	1.02
MGRVNYGAFIN [GLB1_Y485_YF]	0.498
GADDSYYTARS [ZAP70_Y492]	0.517
STTIHYNFMCN [TP53_Y234_C229S_YF]	0.605
MMVGAYSTLEG [ECPAS_Y470]	0.545

The sequences below were run against Hck (UniProt P08631) in the same assay as above.
Chain of Hck (P08631 whole entry, looked up): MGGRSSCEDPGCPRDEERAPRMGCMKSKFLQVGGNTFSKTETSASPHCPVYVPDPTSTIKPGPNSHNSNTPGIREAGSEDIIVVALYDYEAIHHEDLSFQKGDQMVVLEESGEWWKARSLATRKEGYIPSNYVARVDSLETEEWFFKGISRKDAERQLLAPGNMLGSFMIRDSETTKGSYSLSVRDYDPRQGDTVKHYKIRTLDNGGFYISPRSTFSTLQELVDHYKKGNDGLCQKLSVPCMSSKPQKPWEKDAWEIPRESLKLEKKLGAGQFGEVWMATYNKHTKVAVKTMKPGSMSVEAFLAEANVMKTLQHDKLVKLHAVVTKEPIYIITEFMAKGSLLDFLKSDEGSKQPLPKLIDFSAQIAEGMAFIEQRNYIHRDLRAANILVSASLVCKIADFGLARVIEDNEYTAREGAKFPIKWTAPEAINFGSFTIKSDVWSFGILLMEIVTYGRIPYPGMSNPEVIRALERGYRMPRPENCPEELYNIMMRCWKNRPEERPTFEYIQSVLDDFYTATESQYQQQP

Sequence	phosphorylation enrichment
SEKVVYRRFTE [NCF1_Y41]	0.414
CTTIHFNFMCN [TP53_Y234_Y234F_YF]	0.582
IMITDYLLLFR [INSR_Y87]	0.502
MSSAGYRAAEG [COL6A3_Y543_T538M]	0.375
NKEAICSGFIR [SMCHD1_Y283_Y283C_YF]	0.501
CTTIRYNYMCN [TP53_Y234_H233R]	0.449
YRVDCYKNFVA [FHL1_Y213_C209R]	0.487
IFGASYVPFAA [RBM47_Y541_YF]	0.92
VNYGAYINYFK [GLB1_Y488_D491Y]	1.1
GRRNTYYASIA [ACADM_Y352]	0.56
RRIHSHRGHLW [VHL_Y112_Y112H]	0.737
SCRENYSFSEE [LEMD3_Y258_D260Y_YF]	0.509
YADGVYQALEE [DUOX2_Y70]	3.86
LENSTYQFICV [CRB1_Y760_R764C_YF]	3.46
SSMIDYKPLEK [MYOC_Y479_N480K]	0.413
QRALLYEDTLF [UNC13D_Y56_A59T_YF]	1.65
GRDQPYSGTGD [TYRO3_Y828_A831T]	0.481

Sequence	phosphorylation enrichment
ISDEAYVMAGV [ERBB2_Y772_L768S]	0.541
TSIGNYFKPWF [DHCR24_Y299_N294T_YF]	0.46
EARRVYGDIIF [ALDH5A1_Y175_H180Y_YF]	0.509
YKIYLYTLNDN [FN1_Y1975]	0.563
EATKGYLDDPT [G6PD_Y322]	0.421
ALAAPYVLFPG [CEFIP_Y1332_YF]	0.641
SNFRAYATEPQ [TNNI3_Y29_H34Q_YF]	0.518
ALADKYHGGGG [HBB_Y146_H144D]	0.355
ARAGEYGAEAL [HBA1_Y25_H21R]	0.432
FVGGFYGGCNE [CTSC_Y352_YF]	1.02
FAADFYKLLGN [ROR2_Y646_YF]	0.484
LLIMEYAKYGS [RET_Y806_V804M]	0.64
MGRVNYGAFIN [GLB1_Y485_YF]	0.422
GADDSYYTARS [ZAP70_Y492]	0.737
STTIHYNFMCN [TP53_Y234_C229S_YF]	0.504
MMVGAYSTLEG [ECPAS_Y470]	1.07

Each sequence was assayed on AncSZ in the same assay as above.

Sequence	phosphorylation enrichment
SEKVVYRRFTE [NCF1_Y41]	0.663
CTTIHFNFMCN [TP53_Y234_Y234F_YF]	1.07
IMITDYLLLFR [INSR_Y87]	1.21
MSSAGYRAAEG [COL6A3_Y543_T538M]	0.468
NKEAICSGFIR [SMCHD1_Y283_Y283C_YF]	0.693
CTTIRYNYMCN [TP53_Y234_H233R]	0.787
YRVDCYKNFVA [FHL1_Y213_C209R]	0.984
IFGASYVPFAA [RBM47_Y541_YF]	0.775
VNYGAYINYFK [GLB1_Y488_D491Y]	0.894
GRRNTYYASIA [ACADM_Y352]	0.653
RRIHSHRGHLW [VHL_Y112_Y112H]	0.918
SCRENYSFSEE [LEMD3_Y258_D260Y_YF]	1.1
YADGVYQALEE [DUOX2_Y70]	1.71
LENSTYQFICV [CRB1_Y760_R764C_YF]	2.12
SSMIDYKPLEK [MYOC_Y479_N480K]	0.562
QRALLYEDTLF [UNC13D_Y56_A59T_YF]	1.58
GRDQPYSGTGD [TYRO3_Y828_A831T]	0.667

Sequence	phosphorylation enrichment
ISDEAYVMAGV [ERBB2_Y772_L768S]	1.15
TSIGNYFKPWF [DHCR24_Y299_N294T_YF]	1.03
EARRVYGDIIF [ALDH5A1_Y175_H180Y_YF]	0.683
YKIYLYTLNDN [FN1_Y1975]	1.34
EATKGYLDDPT [G6PD_Y322]	0.859
ALAAPYVLFPG [CEFIP_Y1332_YF]	0.775
SNFRAYATEPQ [TNNI3_Y29_H34Q_YF]	0.577
ALADKYHGGGG [HBB_Y146_H144D]	0.467
ARAGEYGAEAL [HBA1_Y25_H21R]	0.866
FVGGFYGGCNE [CTSC_Y352_YF]	1.22
FAADFYKLLGN [ROR2_Y646_YF]	1.02
LLIMEYAKYGS [RET_Y806_V804M]	1.39
MGRVNYGAFIN [GLB1_Y485_YF]	0.567
GADDSYYTARS [ZAP70_Y492]	1
STTIHYNFMCN [TP53_Y234_C229S_YF]	1
MMVGAYSTLEG [ECPAS_Y470]	0.765
